The record followed here is patent US20100150950A1, “HUMAN ANTIBODIES THAT BIND CD70 AND USES THEREOF” (Medarex, Inc., priority 2006, published 2010).

The test system of this assay is activated human B cells. Description: Binding to and ADCC of activated human B cells (51Cr). The assay is classed as cell-based. The method, then: In this study, a HuMAb anti-CD70 antibody and the nonfucosylated form were tested for their ability to mediate ADCC effects on human B cells. Frozen human spleen cells were thawed and B cells were negatively purified by magnetic beads. Purified B cells were cultured at 2×10^6/ml in RPMI+10% FBS supplemented with NEAA, sodium pyruvate, β-ME and penicillin/streptomycin. B cells were activated by 10 μg/ml of LPS and 5 μg/ml anti-CD40 for 3 days. The cells were harvested, washed and an aliquot was stained with biotin conjugated nonfucosylated 2H5 (2H5 NF-bio)+streptavidin-APC. Human peripheral blood mononuclear effector cells were purified from heparinized whole blood by standard Ficoll-Paque separation and cultured overnight in of 50 U/ml IL-2. The activated B cells were labeled with 100 μCi of Na2 ^51CrO4 (Perkin Elmer, Wellesley, Mass.) per 1×10^6 cells for 1 hour. Effector cells were added to labeled target cells at a ratio of […] in the presence of serial dilutions of 2H5 and 2H5 NF (non-fucosylated). In addition, the test articles were assayed at 10 μg/ml in the presence of 20 μg/ml murine anti-CD 16 antibody 3G8 or mouse isotype control antibody. Following […] for 4 hours at 37° C., cells were centrifuged and the supernate was read on the Cobra II auto-gamma counter (Perkin Elmer) with a reading window of 240-400 KeV. The percent specific lysis was calculated as: (experimental release−spontaneous release)/(maximal release−spontaneous release)×100 where: (i) target cells with no effector cells and no antibody control for spontaneous release and (ii) target and effector cells in presence of 3% Lysol detergent control for maximal release. Percent specific lysis was plotted against antibody concentration and the data was analyzed by non-linear regression, sigmoidal dose response (variable slope) using GraphPad Prism™ 3.0 software (San Diego, Calif.).

B1: 2H5 NF: 2H5 HuMAb lacking fucosyl residues, expressed in CHO cell line Ms704-PF (antibody, V domains shown)
VH: QVQLVESGGGVVQPGRSLRLSCAASGFTFSSYIMHWVRQAPGKGLEWVAVISYDGRNKYYADSVKGRFTISRDNSKNTLYLQMNSLRAEDTAVYYCARDTDGYDFDYWGQGTLVTVSS
VL: EIVLTQSPATLSLSPGERATLSCRASQSVSSYLAWYQQKPGQAPRLLIYDASNRATGIPARFSGSGSGTDFTLTISSLEPEDFAVYYCQQRTNWPLTFGGGTKVEIK
For the molecule B1, the “potency relative to 2H5” value (ADCC of activated human B cells) is “approximately 10 fold”. Moreover, the “activated B cells bound” value (biotin conjugated 2H5 NF + streptavidin-APC, FACS) is on record as roughly 60%. The “lysis of activated human B cells (ADCC)” value (effector to target 1:100 as printed, 4 hours) is given as “induced lysis”.
